Reference: patent US20210386866A1 (DEVELOPMENT CENTER FOR BIOTECHNOLOGY, published 2021)

Key:
[1] = target: T1, human mesothelin recombinant protein (human, UniProt Q13421 296-580, limits assumed); test: ELISA, plate coated with mesothelin protein, serial dilutions of antibody, non-linear regression
T1 construct: also called mesothelin protein; MSLN
Description: (§1) ELISA plates were coated with 1˜2 μg/100 μl per well of mesothelin protein. Wells were rinsed for 3 times with PBS and blocked with 300 μl 5% MPBS per well for 2 hr at 37° C. After washing with PBS, wells were incubated with serial diluted mesothelin antibodies in 5% MPBS for 1.5 hours at 37° C. The plates were washed and goat polyclonal anti-human IgG-HRP antibody (1:10,000) (Jackson ImmunoResearch) was added into each well. The absorbance was measured as described above and the binding affinities of antibodies were calculated by non-linear regression with Prism software (GraphPad).

[2] = target: T1, human mesothelin recombinant protein; test: ELISA, plate coated with mesothelin at 1 ug/mL, detection with anti-human Kappa light chains
Description: (§2) 100 μL of mesothelin in a coating buffer at a concentration of 1 μg/mL was added to and coated on each well of a plate. The plates were sealed and incubated at 4° C. overnight. The wells were aspirated and washed with 300 μL of PBST (0.05% Tween 20) for 3 times. The wells were blocked by adding 200 μL of PBS-5% skim milk and incubated at 37° C. for 1 hour. The wells were aspirated and washed with 300 μL/well of PBST (0.05% Tween 20) for 3 times. 100 μL of 400 ng ADC sample diluted with PBS was added to each well, and the plates were then incubated at 37° C. for 1 hour. The wells were aspirated and washed with 300 μL of PBST (0.05% Tween 20) for 3 times. 50 μl of anti-human Kappa light chains (1:5000) was added to each well, and the plates were incubated at 37° C. for 1 hour. The wells were aspirated and washed with 300 μL/well of PBST (0.05% Tween 20) for 3 times. 100 μl of TMB was added to each well, and the plates were incubated at room temperature for 15 minutes. The color development was stopped by adding 100 μL of 1N HCl.

[3] = target: T1, human mesothelin recombinant protein; test: ELISA, plate coated with mesothelin 1 ug/mL, detection with anti-human kappa light chain antibody
Description: as §2

[4] = target: T1, human mesothelin recombinant protein; test: SPR, Biacore T100, ADC captured on anti-human IgG-Fc CM5 chip, human mesothelin recombinant protein as analyte (3.7 to 100 nM), 1:1 Langmuir model
Description: (§3) The kinetic constant of the anti-mesothelin ADCs interaction against mesothelin was determined by surface plasma resonance (Biacore® T100, Biacore, Inc., Piscataway, N.J.). The flow cell of the CM5 wafer was fixed with approximately 10,000 reaction units (RU) of anti-human IgG-Fc (Biacore®) in 10 mM glycine pH 5.0 at 10 μL/min for 600 seconds. 10 μg/mL of anti-mesothelin antibody and anti-mesothelin ADCs diluted in TBS at 10 μl/min were captured on CM5 chips. Four concentrations (from 3.7 to 100 nM) of human mesothelin recombinant protein and zero concentration (flow buffer) in 100 μl/min binding were recorded in PBS containing 1 mM CaCl₂ for 3 minutes. The dissociation of the complex was measured for 10 minutes. The water surface was regenerated by injecting 3 M MgCl₂ and 3 mM EGTA at 10 μl/min for 60 seconds. The curve obtained after subtracting the reference and buffer signals was taken into the 1:1 Langmuir binding model using the Biacore® T100 evaluation software (Biacore®).

[5] = target: T1, human mesothelin recombinant protein; test: ELISA, plate coated with mesothelin protein, serial dilutions of antibody, detection with anti-human IgG-HRP
Description: as §1

[6] = target: T1, human mesothelin recombinant protein; test: SPR, BIAcore T200, mesothelin coupled to CM5 chip, antibody injected (0.3125 nM to 40 nM), 25 degree C, 1:1 Langmuir model
Description: Carboxymethylated dextran biosensor chips (CM5, Cytiva Inc.) were activated with N-ethyl-N′-(3-dimethylaminopropyl)-carbodiimide hydrochloride (EDC) and N-hydroxysuccinimide (NHS) according to the supplier's instructions. Mesothelin protein was diluted with 10 mM sodium acetate, pH 4.0, into 5 μg/ml before injection at a flow rate of 10 μL/minute to achieve approximately 1500 response units (RU) of coupled protein followed by the injection of 1M ethanolamine to block unreacted groups. For kinetics measurements, two-fold serial dilutions of anti-mesothelin mAb (0.3125 nM to 40 nM) were injected in HBS-EP+ Biacore running buffer provided by the manufacturer (Cytiva Inc.) at 25 degree C. at a flow rate of 30 μL/min, and binding responses on the mesothelin protein were corrected by subtraction of responses on a blank flow cell. Association rates (kon or ka) and dissociation rates (koff or kd) were calculated using a simple one-to-one Langmuir binding model with separate fittings of kon and koff was used. (Cytiva.™. Biacore Insight Evaluation Software).

[7] = target: T1, human mesothelin recombinant protein; test: SPR, Biacore T100, antibody captured on anti-human IgG-Fc CM5 chip, human mesothelin recombinant protein as analyte (3.7 to 100 nM), 1:1 Langmuir model
Description: as §3

T1 sequence (Q13421 other isoform, or with tags, fused parts or gaps limits assumed): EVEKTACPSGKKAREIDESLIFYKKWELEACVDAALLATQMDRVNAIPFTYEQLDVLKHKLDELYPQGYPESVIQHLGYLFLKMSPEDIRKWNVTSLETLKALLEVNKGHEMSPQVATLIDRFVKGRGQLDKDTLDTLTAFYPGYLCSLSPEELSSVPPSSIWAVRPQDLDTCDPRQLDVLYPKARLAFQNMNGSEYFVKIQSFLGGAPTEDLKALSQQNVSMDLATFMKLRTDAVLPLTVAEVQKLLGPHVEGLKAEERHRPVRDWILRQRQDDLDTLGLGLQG

B1: humanized SS1 4D5 (HdSS1) (antibody, V domains shown)
VH: EVQLVESGGGLVQPGGSLRLSCAASGYSFTGYTMNWVRQAPGKGLEWVALITPYNGASSYNQKFRGRFTISRDDSKNTLYLQMNSLRAEDTAVYYCARGGYDGRGFDYWGQGTLVTVSS
VL: DIQMTQSPSSLSASVGDRVTITCSASSSVSYMHWYQQKPGKAPKLLIYDTSKLASGVPSRFSGSGSGTDFTLTISSLQPEDFATYYCQQWSKHPLTFGQGTKVEIKR
notes: also called HdSS1 HH; HdSS1 (HH)
[1]
  Kd: 26.1 nM

B2: DCBPR2002-2(DBCO-vc-seco-DUBA)-2(DBCO-s-DM1) (other)
VH: QVQLVQSGAEVKKPGASVKVSCKASGYSFTGYTMNWVRQAPGQGLEWMGLITPYNGASSYNQKFRGRVTMTRDTSISTAYMELSRLRSDDTAVYYCARGGYDGRGFDYWGQGTLVTVSS
VL: EIVLTQSPATLSLSPGERATLSCSASSSVSYMHWYQQKPGQAPRLLIYDTSKLASGIPARFSGSGSGTDFTLTISSLEPEDFAVYYCQQWSKHPLTFGQGTKVEIKR
modifications: DBCO-vc-seco DUBA (2 per antibody) and DBCO-S-DM1 (2 per antibody) linked through GlcNAz to the tri-mannosyl N-glycan of the heavy chain constant region (DAR ~4)
[2]
  Kd: 0.0732 nM
[3]
  EC50 (read off the curve): ~0.07 nM

B3: DCBPR2002-2(DBCO-vc-MMAE)-2(DBCO-vc-seco-DUBA) (other)
VH: B2 VH
VL: B2 VL
modifications: DBCO-vc-MMAE (2 per antibody) and DBCO-vc-seco DUBA (2 per antibody) linked through GlcNAz to the tri-mannosyl N-glycan of the heavy chain constant region (DAR ~4)
[2]
  Kd: 0.158 nM
[4]
  Kd: 0.0256 nM

B4: DCBPR2002-4(DBCO-vc-MMAE) (other)
VH: B2 VH
VL: B2 VL
modifications: DBCO-vc-MMAE linked through GlcNAz to the tri-mannosyl N-glycan of the heavy chain constant region; 4 per antibody (DAR 3.89 by LC-MS)
[2]
  Kd: 0.133 nM
[4]
  Kd: 0.0217 nM

B5: DCBPR2002-4(DBCO-s-DM1) (other)
VH: B2 VH
VL: B2 VL
modifications: DBCO-S-DM1 linked through GlcNAz to the tri-mannosyl N-glycan of the heavy chain constant region; 4 per antibody (DAR ~4)
[2]
  Kd: 0.145 nM

B6: DCBPR2002-2(DBCO-vc-MMAE)-2(DBCO-s-DM1) (other)
VH: B2 VH
VL: B2 VL
modifications: DBCO-vc-MMAE (2 per antibody) and DBCO-S-DM1 (2 per antibody) linked through GlcNAz to the tri-mannosyl N-glycan of the heavy chain constant region (DAR ~4)
[2]
  Kd: 0.136 nM

B7: DCBPR2002-4(DBCO-vc-seco-DUBA) (other)
VH: B2 VH
VL: B2 VL
modifications: DBCO-vc-seco DUBA linked through GlcNAz to the tri-mannosyl N-glycan of the heavy chain constant region; 4 per antibody (DAR ~4)
[2]
  Kd: 0.0975 nM

B8: humanized antibody HuSS1 (DCBPR2002) (antibody, V domains shown)
VH: B2 VH
VL: B2 VL
notes: also called HuSS1-HH; HuSS1 (HH)
[2]
  Kd: 0.0924 nM
[1]
  Kd: 0.0499 nM
[3]
  EC50 (read off the curve): ~0.09 nM
[5]
  EC50 (read off the curve): ~0.05 nM
[6]
  Kd: 0.0025 nM
  koff: 1.12e-05 s⁻¹
  kon: 4.49e+06 M⁻¹ s⁻¹
[7]
  Kd: 0.0169 nM
